Experimental data from the supplement of paper PMC9112550, “Optimization of the antimicrobial peptide Bac7 by deep mutational scanning” (BMC Biology, 2022).

Test system: Escherichia coli TOP10
Experiment: shrunken log2 fold change of peptide-encoding DNA abundance (4.5 h post-induction vs induction); higher = less antimicrobial activity (less host growth inhibition)
Settings: time post-induction: 4.5 h; library: site-saturation at positions 5, 18, 19, 20
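Also: peptides expressed intracellularly from a pBAD plasmid library in pooled LB shake-flask culture, induced with 0.3% L-arabinose, DNA abundance read by NGS, three biological replicates, DESeq2 with apeglm shrinkage.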

Row | Sequence | shrunken log2 fold change
1 | RRIRERPPRLPRPRPRPTIPPRP | -0.475
2 | RRIRERPPRLPRPRPRPWYVPRP | -0.612
3 | RRIRYRPPRLPRPRPRPNAPPRP | -0.228
4 | RRIRLRPPRLPRPRPRPMGTPRP | -0.0465
5 | RRIRTRPPRLPRPRPRPDQTPRP | -0.0468
6 | RRIRFRPPRLPRPRPRPYLHPRP | -0.454
7 | RRIRARPPRLPRPRPRPTTEPRP | 0.443
8 | RRIRLRPPRLPRPRPRPSDSPRP | -0.498
9 | RRIRLRPPRLPRPRPRPFLIPRP | -0.666
10 | RRIRMRPPRLPRPRPRPRLVPRP | 0.76
11 | RRIRSRPPRLPRPRPRPYYTPRP | -0.576
12 | RRIRERPPRLPRPRPRPLTRPRP | 0.167
13 | RRIRYRPPRLPRPRPRPQPNPRP | -0.226
14 | RRIRVRPPRLPRPRPRPFCPPRP | -0.0571
15 | RRIRTRPPRLPRPRPRPPQMPRP | 0.185
16 | RRIRYRPPRLPRPRPRPTSWPRP | -0.138
17 | RRIRWRPPRLPRPRPRPHSQPRP | 0.0984
18 | RRIRKRPPRLPRPRPRPNAHPRP | 0.208
19 | RRIRQRPPRLPRPRPRPIHVPRP | -0.15
20 | RRIRRRPPRLPRPRPRPDPGPRP | -0.0599
21 | RRIRYRPPRLPRPRPRPRLAPRP | 0.299
22 | RRIRIRPPRLPRPRPRPHERPRP | -0.169
23 | RRIRARPPRLPRPRPRPSTWPRP | -0.0645
24 | RRIRGRPPRLPRPRPRPKQCPRP | 0.103
25 | RRIRNRPPRLPRPRPRPCPDPRP | -0.0721

Row | Sequence | shrunken log2 fold change
26 | RRIRQRPPRLPRPRPRPEPHPRP | 0.0864
27 | RRIRMRPPRLPRPRPRPNSVPRP | -0.0202
28 | RRIRCRPPRLPRPRPRPRDEPRP | 0.342
29 | RRIRLRPPRLPRPRPRPSCHPRP | -0.475
30 | RRIRCRPPRLPRPRPRPKTPPRP | 0.827
31 | RRIRMRPPRLPRPRPRPLQMPRP | 2.29
32 | RRIRARPPRLPRPRPRPMYFPRP | -0.154
33 | RRIRCRPPRLPRPRPRPLYPPRP | -0.729
34 | RRIRIRPPRLPRPRPRPNYNPRP | -1.12
35 | RRIRNRPPRLPRPRPRPVEFPRP | -0.00441
36 | RRIRGRPPRLPRPRPRPGCPPRP | 0.806
37 | RRIRYRPPRLPRPRPRPTWKPRP | -0.333
38 | RRIRQRPPRLPRPRPRPSTWPRP | -0.116
39 | RRIRGRPPRLPRPRPRPMKRPRP | 0.343
40 | RRIRPRPPRLPRPRPRPGRDPRP | 0.286
41 | RRIRPRPPRLPRPRPRPETGPRP | -0.0114
42 | RRIRTRPPRLPRPRPRPQWRPRP | 0.207
43 | RRIRNRPPRLPRPRPRPRTLPRP | -0.0666
44 | RRIRCRPPRLPRPRPRPAVDPRP | 0.449
45 | RRIRNRPPRLPRPRPRPMVWPRP | -0.03
46 | RRIRTRPPRLPRPRPRPPWCPRP | 0.28
47 | RRIRPRPPRLPRPRPRPIWVPRP | 0.0645
48 | RRIRYRPPRLPRPRPRPNFQPRP | -0.578
49 | RRIRNRPPRLPRPRPRPCWWPRP | 0.0782
50 | RRIRLRPPRLPRPRPRPCPPPRP | 0.157

Row | Sequence | shrunken log2 fold change
51 | RRIRYRPPRLPRPRPRPPYRPRP | -0.714
52 | RRIRERPPRLPRPRPRPAGWPRP | 0.555
53 | RRIRQRPPRLPRPRPRPWSEPRP | -0.266
54 | RRIRKRPPRLPRPRPRPRGYPRP | 0.166
55 | RRIRRRPPRLPRPRPRPMTVPRP | -0.238
56 | RRIRKRPPRLPRPRPRPDWDPRP | -0.193
57 | RRIRVRPPRLPRPRPRPNTCPRP | -0.101
58 | RRIRMRPPRLPRPRPRPAWLPRP | 0.818
59 | RRIRFRPPRLPRPRPRPMFTPRP | -0.123
60 | RRIRGRPPRLPRPRPRPPDAPRP | 1.45
61 | RRIRWRPPRLPRPRPRPGPQPRP | 0.938
62 | RRIRSRPPRLPRPRPRPAMGPRP | 0.313
63 | RRIRCRPPRLPRPRPRPVDQPRP | -0.304
64 | RRIRIRPPRLPRPRPRPECEPRP | -0.0311
65 | RRIRIRPPRLPRPRPRPWTFPRP | 0.0921
66 | RRIRFRPPRLPRPRPRPNLIPRP | -0.347
67 | RRIRDRPPRLPRPRPRPHANPRP | 0.0766
68 | RRIRFRPPRLPRPRPRPEVIPRP | 0.0373
69 | RRIRVRPPRLPRPRPRPVITPRP | -0.207
70 | RRIRFRPPRLPRPRPRPYECPRP | -0.0179
71 | RRIRPRPPRLPRPRPRPHCDPRP | 0.22
72 | RRIRLRPPRLPRPRPRPGAPPRP | 0.672
73 | RRIRMRPPRLPRPRPRPWRVPRP | -0.158
74 | RRIRERPPRLPRPRPRPETKPRP | -0.231
75 | RRIRARPPRLPRPRPRPDLNPRP | 0.473

Row | Sequence | shrunken log2 fold change
76 | RRIRSRPPRLPRPRPRPFMEPRP | -0.54
77 | RRIRQRPPRLPRPRPRPHYPPRP | -0.219
78 | RRIRVRPPRLPRPRPRPCKQPRP | -0.148
79 | RRIRLRPPRLPRPRPRPQYLPRP | -0.0559
80 | RRIRRRPPRLPRPRPRPGPCPRP | 0.0678
81 | RRIRFRPPRLPRPRPRPQFYPRP | -0.592
82 | RRIRIRPPRLPRPRPRPCNWPRP | -0.135
83 | RRIRFRPPRLPRPRPRPAAHPRP | 0.333
84 | RRIRCRPPRLPRPRPRPSKCPRP | -0.266
85 | RRIRHRPPRLPRPRPRPYIIPRP | -0.855
86 | RRIRARPPRLPRPRPRPMQHPRP | 0.642
87 | RRIRCRPPRLPRPRPRPFKYPRP | -0.246
88 | RRIRRRPPRLPRPRPRPCCVPRP | 0.415
89 | RRIRWRPPRLPRPRPRPSCNPRP | -0.0978
90 | RRIRNRPPRLPRPRPRPHQGPRP | -0.0861
91 | RRIRQRPPRLPRPRPRPCYLPRP | -0.195
92 | RRIRTRPPRLPRPRPRPHRWPRP | -0.254
93 | RRIRSRPPRLPRPRPRPEFCPRP | 0.132
94 | RRIRPRPPRLPRPRPRPSWQPRP | -0.0441
95 | RRIRRRPPRLPRPRPRPGWDPRP | 0.0298
96 | RRIRCRPPRLPRPRPRPWGFPRP | 0.248
97 | RRIRWRPPRLPRPRPRPFNYPRP | -0.533
98 | RRIRIRPPRLPRPRPRPKFWPRP | -0.0477
99 | RRIRLRPPRLPRPRPRPWWWPRP | -0.00192
100 | RRIRTRPPRLPRPRPRPMHLPRP | -0.318

Row | Sequence | shrunken log2 fold change
101 | RRIRGRPPRLPRPRPRPHGRPRP | 0.182
102 | RRIRQRPPRLPRPRPRPLWTPRP | -0.042
103 | RRIRARPPRLPRPRPRPNEYPRP | -0.284
104 | RRIRIRPPRLPRPRPRPDIDPRP | -0.151
105 | RRIRMRPPRLPRPRPRPCRGPRP | 0.0309
106 | RRIRPRPPRLPRPRPRPHDLPRP | 0.0288
107 | RRIRVRPPRLPRPRPRPESNPRP | 0.0327
108 | RRIRWRPPRLPRPRPRPCHHPRP | -0.723
109 | RRIRGRPPRLPRPRPRPHVCPRP | 0.359
110 | RRIRIRPPRLPRPRPRPKLQPRP | 0.173
111 | RRIRYRPPRLPRPRPRPFMEPRP | -0.0943
112 | RRIRCRPPRLPRPRPRPHWDPRP | -0.306
113 | RRIRNRPPRLPRPRPRPLVCPRP | -0.201
114 | RRIRPRPPRLPRPRPRPWHHPRP | -0.209
115 | RRIRHRPPRLPRPRPRPFCMPRP | -1.09
116 | RRIRCRPPRLPRPRPRPLWVPRP | -0.1
117 | RRIRLRPPRLPRPRPRPELIPRP | -0.0413
118 | RRIRVRPPRLPRPRPRPQVMPRP | -0.112
119 | RRIRVRPPRLPRPRPRPPCGPRP | 0.297
120 | RRIRERPPRLPRPRPRPGFGPRP | 0.0959
121 | RRIRCRPPRLPRPRPRPWIIPRP | -0.577
122 | RRIRFRPPRLPRPRPRPTHYPRP | -0.0275
123 | RRIRNRPPRLPRPRPRPLYMPRP | -0.308
124 | RRIRWRPPRLPRPRPRPAYAPRP | 0.531
125 | RRIRPRPPRLPRPRPRPTQDPRP | 0.833
